Results on three molecules are retold here after publication PMC9299608, “A Multi‐enzyme Cascade for the Biosynthesis of AICA Ribonucleoside Di‐ and Triphosphate” (Chembiochem, 2021).

One data set deals with T1, MrPPK (Meiothermus ruber, UniProt M9XB82).
T1 construct: gene K649_10090; expressed in E. coli SHuffle T7 Express; IMAC and desalting
T1 sequence (M9XB82 1-267): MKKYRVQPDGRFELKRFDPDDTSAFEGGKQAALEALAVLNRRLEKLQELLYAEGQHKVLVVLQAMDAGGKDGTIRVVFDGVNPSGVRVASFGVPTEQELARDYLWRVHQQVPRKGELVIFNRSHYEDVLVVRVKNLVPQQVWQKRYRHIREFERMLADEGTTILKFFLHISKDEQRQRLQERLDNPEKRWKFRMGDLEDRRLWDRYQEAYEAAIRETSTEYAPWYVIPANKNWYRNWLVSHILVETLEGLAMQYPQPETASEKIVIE
As to the kind of experiment: HPLC product quantification, Michaelis-Menten fit limited to data without substrate inhibition. Particulars: sodium polyphosphate as phosphate donor (standard assay 5 mM), MgCl2 20 mM, tris pH 8.0, 40 °C; not a true KM; reduced activity above 14 mM substrate. Type of data set: biochemical. The text has this: HPLC product quantification, Michaelis-Menten fit limited to data without substrate inhibition on MrPPK

Data set [1] deals with NC(=O)c1ncn([C@@H]2O[C@H](COP(=O)(O)O)[C@@H](O)[C@H]2O)c1N. As to the kind of experiment: purified protein. As to conditions: sodium polyphosphate as phosphate donor (standard assay 5 mM), MgCl2 20 mM, tris pH 8.0, 30 °C.
Substrate in data set [2]: NC(=O)c1[nH]cnc1N
As to the kind of experiment: HPLC product quantification, Michaelis-Menten fit. Particulars: co-substrate PRPP, MgCl2 20 mM, tris pH 8.0, standard assay 40 °C (kinetics under conditions optimized for each cascade), text b32 gives 6.2. Type of data set: biochemical, Escherichia coli. The source says: HPLC product quantification, Michaelis-Menten fit on EcAPT

As to `NC(=O)c1ncn([C@@H]2O[C@H](COP(=O)(O)O)[C@@H](O)[C@H]2O)c1N` [ZMP], at MrPPK, the Km was greater than 8.6 mM. Take AjPPK (Acinetobacter johnsonii): in data set [1], the Michaelis-Menten constant (Km) was found to be 8.2 ± 1.4 mM and the Vmax came to 67 µmol/min/mg.

B1: EcAPT (Escherichia coli K-12) (protein)
chain: MTATAQQLEYLKNSIKSIQDYPKPGILFRDVTSLLEDPKAYALSIDLLVERYKNAGITKVVGTEARGFLFGAPVALGLGVGFVPVRKPGKLPRETISETYDLEYGTDQLEIHVDAIKPGDKVLVVDDLLATGGTIEATVKLIRRLGGEVADAAFIINLFDLGGEQRLEKQGITSYSLVPFPGH
notes: expressed in E. coli BL21(DE3); IMAC and desalting
Regarding B1, in data set [2], the Michaelis-Menten constant (Km) amounted to 6.3 ± 2.3 mM and the maximal velocity (Vmax) turned out to be 8.6 µmol/min/mg.
